{
  "source": "patent US20130149237A1",
  "key": {"[1]": {"molecular_target": "Recombinant human ApoER2 (R&D Systems #3520-AR) (human) (UniProt Q14114)", "sequence (Q14114 other isoform, or with tags, fused parts or gaps limits assumed)": "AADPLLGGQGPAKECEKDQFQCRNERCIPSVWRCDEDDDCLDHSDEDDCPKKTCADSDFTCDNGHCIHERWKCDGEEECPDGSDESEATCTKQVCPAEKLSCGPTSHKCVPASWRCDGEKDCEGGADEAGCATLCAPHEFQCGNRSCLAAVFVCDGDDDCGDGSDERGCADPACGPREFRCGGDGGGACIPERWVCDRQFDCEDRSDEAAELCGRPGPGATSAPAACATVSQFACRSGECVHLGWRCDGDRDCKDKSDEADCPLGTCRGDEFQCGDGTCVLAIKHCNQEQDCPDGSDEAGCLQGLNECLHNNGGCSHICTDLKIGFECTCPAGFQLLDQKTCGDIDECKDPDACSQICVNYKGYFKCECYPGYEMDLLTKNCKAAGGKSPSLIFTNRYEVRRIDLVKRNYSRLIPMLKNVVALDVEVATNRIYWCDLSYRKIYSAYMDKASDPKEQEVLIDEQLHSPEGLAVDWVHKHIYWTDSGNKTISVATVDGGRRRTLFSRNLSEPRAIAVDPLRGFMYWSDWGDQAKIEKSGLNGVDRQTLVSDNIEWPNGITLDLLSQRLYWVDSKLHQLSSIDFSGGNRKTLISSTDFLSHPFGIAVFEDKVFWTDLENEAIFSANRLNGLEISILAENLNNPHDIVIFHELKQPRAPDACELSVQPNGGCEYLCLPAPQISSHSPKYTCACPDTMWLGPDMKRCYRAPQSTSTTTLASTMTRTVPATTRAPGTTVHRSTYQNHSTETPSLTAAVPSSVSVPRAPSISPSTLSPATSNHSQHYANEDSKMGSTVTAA", "assay": "direct ELISA: wells coated with 1 ug/ml recombinant human ApoER2, antibody titrated, HRP anti-mouse IgG detection"}, "[2]": {"molecular_target": "Recombinant human ApoER2 (R&D Systems #3520-AR) (human) (UniProt Q14114)", "assay": "ELISA on plates coated with 1 µg/ml recombinant human ApoER2; sample: Apical/Luminal medium of the transwell with Empty Filter"}, "[3]": {"molecular_target": "Recombinant human ApoER2 (R&D Systems #3520-AR) (human) (UniProt Q14114)", "assay": "ELISA on plates coated with 1 µg/ml recombinant human ApoER2; sample: Apical/Luminal medium of the transwell with hCMEC/D3 cells"}, "[4]": {"molecular_target": "Recombinant human ApoER2 (R&D Systems #3520-AR) (human) (UniProt Q14114)", "assay": "ELISA on plates coated with 1 µg/ml recombinant human ApoER2; sample: Basolateral/Abluminal medium of the transwell with Empty Filter"}, "[5]": {"molecular_target": "Recombinant human ApoER2 (R&D Systems #3520-AR) (human) (UniProt Q14114)", "assay": "ELISA on plates coated with 1 µg/ml recombinant human ApoER2; sample: Basolateral/Abluminal medium of the transwell with hCMEC/D3 cells"}, "[6]": {"molecular_target": "Recombinant human ApoER2 (R&D Systems #3520-AR) (human) (UniProt Q14114)", "assay": "ELISA on plates coated with 1 µg/ml recombinant human ApoER2; sample: Basolateral/Abluminal medium of the transwell with hCMEC/D3 cells, antibody premixed with a 10-fold excess of soluble recombinant human ApoER2"}, "[7]": {"molecular_target": "Recombinant human ApoER2 (R&D Systems #3520-AR) (human) (UniProt Q14114)", "assay": "ELISA on plates coated with 1 µg/ml recombinant human ApoER2; sample: Apical/Luminal medium of the transwell with hCMEC/D3 cells, antibody premixed with a 10-fold excess of soluble recombinant human ApoER2 (low value put down to interference in the ELISA)"}},
  "data": [
    {"substance": "mouse monoclonal anti-human ApoER2 antibody (Abcam ab58216)", "values": [
      {"measurement": "IC50", "setting": "[1]", "result": 0.068, "unit": "µg/mL"},
      {"measurement": "Volume Adjusted OD450nm", "setting": "[2]", "result": 2.75, "unit": "OD450nm"},
      {"measurement": "Volume Adjusted OD450nm", "setting": "[3]", "result": 3.57, "unit": "OD450nm"},
      {"measurement": "Volume Adjusted OD450nm", "setting": "[4]", "result": 0.362, "unit": "OD450nm"},
      {"measurement": "Volume Adjusted OD450nm", "setting": "[5]", "result": 0.138, "unit": "OD450nm"},
      {"measurement": "Volume Adjusted OD450nm", "setting": "[6]", "result": 0.0789, "unit": "OD450nm"},
      {"measurement": "Volume Adjusted OD450nm", "setting": "[7]", "result": 0.537, "unit": "OD450nm"}
    ]}
  ]
}
